Laboratory results as given in patent US20230322935A1 (published 2023).

T1: Human CD93 on the cell surface (human CD93 expressing CHO cells; HUVEC, U937 and KG1a cells) (human, UniProt Q9NPY3 22-652)
T1 chain: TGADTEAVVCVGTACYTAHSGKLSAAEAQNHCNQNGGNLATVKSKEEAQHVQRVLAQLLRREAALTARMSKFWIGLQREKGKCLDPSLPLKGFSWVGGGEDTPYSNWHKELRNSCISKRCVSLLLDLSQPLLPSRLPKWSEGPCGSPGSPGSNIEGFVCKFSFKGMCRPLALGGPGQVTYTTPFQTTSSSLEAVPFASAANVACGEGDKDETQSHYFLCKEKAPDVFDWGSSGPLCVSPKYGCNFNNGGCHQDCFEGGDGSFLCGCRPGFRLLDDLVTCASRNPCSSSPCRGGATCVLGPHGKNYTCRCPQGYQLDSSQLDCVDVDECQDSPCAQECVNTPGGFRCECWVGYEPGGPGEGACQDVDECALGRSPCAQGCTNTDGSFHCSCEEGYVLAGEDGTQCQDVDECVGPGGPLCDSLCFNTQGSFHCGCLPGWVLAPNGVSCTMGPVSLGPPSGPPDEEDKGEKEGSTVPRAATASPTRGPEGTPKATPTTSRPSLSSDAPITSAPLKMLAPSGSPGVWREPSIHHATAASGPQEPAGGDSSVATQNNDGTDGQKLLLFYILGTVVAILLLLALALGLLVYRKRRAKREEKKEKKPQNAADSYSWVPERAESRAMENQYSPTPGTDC


Legend:
[1] = target: T1, Human CD93 on the cell surface (human …); assay: FACS blocking of hIGFBP7-His binding; HUVEC cells
[2] = target: T1, Human CD93 on the cell surface (human …); assay: FACS blocking of MMRN2 binding; FIG. 45

| Binder | IC50 [1] [nM] | IC50 [2] [nM] |
| --- | --- | --- |
| h7F3 (humanized 7F3, VH3+VL3) (antibody, V domains shown) VH: QVQLVQSGAEVKKPGASVKVSCKASGYTFTDYEMHWVRQAPGQGLEWMGGIDPETGDTAYNQNFKGRVTMTTDTSTSTAYMELRSLTSDDTAVYYCTNYGNLYYYAMDYWGQGTSVTVSS VL: EIVLTQSPSSLSASVGDRVTITCRASSSVSSSYLHWYQQKPGKAPKLLIYSTSNLAFGVPSRFSGSGSGTSYTFTISSLQPEDIATYYCQQYSGYPLTFGSGTKLEIK | 1 | – |
| h16E4 (humanized 16E4, VH4+VL6) (antibody, V domains shown) VH: QVQLVQSGAEVKKPGASVKVSCKASGYTFTSYWMHWVRQAPGQGLEWMGEIDPSASYTYYNQKFKGRVTMTRDKSSSTVYMELSSLTSEDSAVYYCARSVYYGNKYFDVWGAGTTVTVSS VL: DIQMTQSPSTLSASVGDRVTITCKASQSVDYAGDSYMNWYQQKPGKAPKLLIYAASNLESGVPSRFSGSGSGTEFTLTISSLQPDDFATYYCQQTNEDPRTFGGGTKLEIK | – | 225 |
